Measured values taken from the DeepSol protein solubility set.

Assay: soluble on expression in E. coli; label from the status in PepcDB or PDB records

## MSSRIEQIIDEIDEFIESCKFQPLSATKIIVNKEEIEELLRELRLKTPDEIKRYQKIISNKDAILEDAQSKADAIIADAQAKAQELVTQHEIMQKAYAQANDTINAANKQAQEILDSATQDANSIRLSAITYTDDMMANIGSVLNQTLEDAGGKYKGFIDALQSCLDVVNHNRQELAPQTAQAAAMTGSYHEEPADAPEEDSLLDDLGEE
  soluble on expression in E. coli: not soluble

## METPLVSIVSICWNRKDEICESLNNIRKIDYESLEIIVVDNGSTDGTVEKIEEDFKEVKLIKMPKNAGIEAYNVGFKSAAGEYIVILDDDSFPEKNSIKRMVKKFQKDDKLGMVAFDVRNYYNYDEVKKIDTEETSNDTAAESDEYIMAFNGAGAGVRTEVLKKAGFYPEEFFLYWNEQDTAFRILDMGYKIKFFADVIAYHKYSPKNRASWRAPFYYTRNAFFLVWKNYSTKAALKKTIELIYDCFYYSMEQKTNIYLKAMWNAFMNFNKIKGKRKVVDKYIEENLRIPLNVSFTFYKLEHHHHHH
  soluble on expression in E. coli: not soluble

## MGSDKIHHHHHHMISERMERQLDFIVAIDALKDITRQSITTGSRRQENDAEHSWHLAVMAMILSEYAEDQTIDIAKVISMVLIHDLVEIYAGDTYCYDEKGYEDKAEREQEAADRLFNMLPEDQAQRMMSLWQEFEEMETKEAAFAATLDRFQPLLLNYNTEGHTWQRPGITSEKVLKRTEIAKEKVPQLYVYIERLIQRSIERGMLKP
  soluble on expression in E. coli: not soluble

## MTTTKANLTEFEQQLVDKAIGAMENAYCKYSNFKVGAALVCDDGEIIIGANHENASYGATICAERSAIVTALTKGHRKFKYIVVATELEAPCSPCGVCRQVLIEFGDYKVILGSSTSDQIIETTTYELLPYAFTPKSLDDHEKETEERKHHNDHNNKE
  soluble on expression in E. coli: not soluble

## MNLVELGSKTAKDGFKNEKDIADRFENWKENSEAQDWLVTMGHNLDEIKSVKAVVLSGYKSDINVQVLVFYKDALDIHNIQVKLVSNKRGFNQIDKHWLAHYQEMWKFDDNLLRILRHFTGELPPYHSNTKDKRRMFMTEFSQEEQNIVLNWLEKNRVLVLTDILRGRGDFAAEWVLVAQKVSNNARWILRNINEVLQHYGSGDISLSPRGSINFGRVTIQRKGGDNGRETANMLQFKIDPTELFDI
  soluble on expression in E. coli: soluble

## MIFEMMGEKFDKNAPIAMQSDVFPRFIINCRDGRTIFKENDTLEFELIIFDNLTELFIQYIYVFETIGQSGLGPEKARYELLSVSDGKGNIIYKNTLLTGNAPVSDIREYISSRLDYCLNNRKNISRMTLLSSVMLNSDCKNGNKKVFFFSAEAFSYSIRERLSRLNVLEKEDEEKLNELLSDKRIINGINMKLTKIDYYIQNEQKTVTFPRFKGYIVFDIERINSYLDYFFACEKLCIGQNILLGFGRYVMG
  soluble on expression in E. coli: not soluble

## MDLQHWQAQFENWLKNHHQHQDAAHDVCHFRRVWATAQKLAADDDVDMLVILTACYFHDIVSLAKNHPQRQRSSILAAEETRRLLREEFEQFPAEKIEAVCHAIAAHSFSAQIAPLTTEAKIVQDADRLEALGAIGLARVFAVSGALGVALFDGEDPFAQHRPLDDKRYALDHFQTKLLKLPQTMQTARGKQLAQHNAHFLVEFMAKLSAELAGENEGVDHKVIDAFSSAGLEHHHHHH
  soluble on expression in E. coli: soluble

## MGSSHHHHHHSSGLVPRGSHMILTLTLNPSVDISYPLTALKLDDVNRVQEVSKTAGGKGLNVTRVLAQVGEPVLASGFIGGELGQFIAKKLDHADIKHAFYNIKGETRNCIAILHEGQQTEILEQGPEIDNQEAAGFIKHFEQLLEKVEAVAISGSLPKGLNQDYYAQIIERCQNKGVPVILDCSGATLQTVLENPYKPTVIKPNISELYQLLNQPLDESLESLKQAVSQPLFEGIEWIIVSLGAQGAFAKHNHTFYRVNIPTISVLNPVGSGDSTVAGITSAILNHENDHDLLKKANTLGMLNAQEAQTGYVNLNNYDDLFNQIEVLEV
  soluble on expression in E. coli: soluble

## MSFDREEDQKLKFKTSKKLKVSSTFESMNLKDDLLRGIYSYGFEAPSSIQSRAITQIISGKDVIAQAQSGTGKTATFTIGLLQAIDLRKKDLQALILSPTRELASQIGQVVKNLGDYMNVNAFAITGGKTLKDDLKKMQKHGCQAVSGTPGRVLDMIKKQMLQTRNVQMLVLDEADELLSETLGFKQQIYDIFAKLPKNCQVVVVSATMNKDILEVTRKFMNDPVKILVKRDEISLEGIKQYVVNVDKEEWKFDTLCDIYDSLTITQCVIFCNTKKKVDWLSQRLIQSNFAVVSMHGDMKQEERDKVMNDFRTGHSRVLISTDVWARGIDVQQVSLVINYDLPEIIENYIHRIGRSGRFGRKGVAINFITKADLAKLREIEKFYSIKINPMPANFAELS
  soluble on expression in E. coli: soluble

## MTELRVYLLIEALQPQFAACLSSPTRARGYPAFAGQSSLIIEVSPALAIHRVTDLALKSAPAMEPGILYTERQFGLLELHADSLEKLNAAGQAILDGMGAKPEDQLKPQILYHDIIENLSDQHAIILNRSREASILVPGVALLIYEMAPALFACVAANEAERAVPRAVINDVQMMGATGRVFMSGSLAEMRLARETITAKLESIPGRQ
  soluble on expression in E. coli: not soluble

## MGSDKIHHHHHHMLTTDNQLIRLSQGQLNLLETCPRKFQHTHLEQLNSPLDPDHTDKLTLGSRFHLLMQQQEMGLPIDSFLQADTQLQNWMSGFANAAPEILTPATDRQTFRESEHYRTLQFQDYLLTVIYDLLIADHQQAQIFDWKTYPKPPDKRKLAQNWQTRLYMYVLAETSQYSPENISMTYWFVQSQGKPQNIQFTYSHNLHTQTAKKLHQLLDQLTKWLNNYQQGTLFPQVPVNSKACDYCQFAKKCDRLLPTVGHKLNSSESNSLEITAQAINKSFPALDAIEEVSI
  soluble on expression in E. coli: not soluble

## MGHHHHHHGGHMSLITAEECRTYKEFVDLYQSYLYPLLGARLSRMYSPKNKVIIDMGTGPGYLSIQLAKRTNAHVHAVDINPAMHEIAQEEAKKSGVSSLISFDLEDVHHLSYADQYADFIVSYSCLHHWEDVVKGLKECYRVLAPGGKIVILDTFNPQGSHLEIMRKQIKEPEYFRFVREAFEESYSFEDIHQFVQDAGIPNYSLETFHFLPEDFIESLDELEDAPLWEQNDQSTDHEIESVTWMLTIEKEKEGALEGGS
  soluble on expression in E. coli: soluble

## QKLGDGHYVMDGKVRIDQVNSLLGASIQEDVDTIGGLILKENIDIEAGESIRIGSYTIKVLKMDGRLIKQIDIKEEAGNTTGITAHHKLPLPEPVMLNSATLSEK
  soluble on expression in E. coli: not soluble

## MGHHHHHHSHMEAEESEKAATEQEPLEGTEQTLDAEEEQEESEEAACGSKKRVVPGIVYLGHIPPRFRPLHVRNLLSAYGEVGRVFFQAEDRFVRRKKKAAAAAGGKKRSYTKDYTEGWVEFRDKRIAKRVAASLHNTPMGARRRSPFRYDLWNLKYLHRFTWSHLSEHLAFERQVRRQRLRAEVAQAKRETDFYLQSVERGQRFLAADGDPARPDGSWTFAQRPTEQELRARKAARPGGRERARLATAQDKARSNKGLLARIFGAPPPSESMEGPSLVRDS
  soluble on expression in E. coli: not soluble

## MGSDKIHHHHHHMGNEVYDAVVVGAGFAGLTAARELSRQGLAVHIVEARDRIGGRTWLDHRLGRDLEIGGTWVHWTQPHVWAELTRYGLETTPSPEPERAFWWADGCRHEGRPDELLGLIGQTNEEFVRDSRKYFPEPFRPMARDDFKSIDHVSVQARIREQFPAGAPRDILESFWALNFNGPLDNAALTQAFRWVALTNGDWAVNFEACATYKIVGGTAALAASMLADSGAGIQYGFKVEAVAEDADVVEIRSADGRTVRARTAIVTVPLHALNAVDFEPPLPAAKAEAASLGQVSKGAKVWFRLRGEHAPFVALGGADWPLNFFQVEYALDGDTIAVGFGPDAAKIEVEDPVAVQAQLARLVPGAEVVAVASHNWVDDPLSGETWPMHRTGFLSTHLPAMQASHGLVLFAGSDIANGWCGFIDGAIESGMGAALDAASLLAGGRP
  soluble on expression in E. coli: not soluble

## MTAKPTVFVVDDDMSVREGLRNLLRSAGFEVETFDCASTFLEHRRPEQHGCLVLDMRMPGMSGIELQEQLTAISDGIPIVFITAHGDIPMTVRAMKAGAIEFLPKPFEEQALLDAIEQGLQLNAERRQARETQDQLEQLFSSLTGREQQVLQLTIRGLMNKQIAGELGIAEVTVKVHRHNIMQKLNVRSLANLVHLVEKYESFERGVS
  soluble on expression in E. coli: soluble
